According to patent publication US20250043302A1, “MUTATED HYDROXYPHENYLPYRUVATE DIOXYGENASE POLYPEPTIDE, AND CODING GENE AND USE THEREOF” (BEIJING DABEINONG BIOTECHNOLOGY CO., LTD., priority 2021, published 2025):

Key:
Format in all cases: in vivo
[1] = tested on: Arabidopsis thaliana T1 plants; experiment: Topramezone tolerance of transgenic Arabidopsis thaliana T1 plants (spray, bleached leaf area grade, damage score); conditions: 7 DAT, Table 4; for Classification and statistics of the grade of pesticide damage: Grade 0 / Classification and statistics of the grade of pesticide damage: Grade 1 / Classification and statistics of the grade of pesticide damage: Grade 2 / Classification and statistics of the grade of pesticide damage: Grade 3: number of plants; for Scores: pesticide damage score 0-100
How it was run: (§1)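 Read-out: per-plant damage grade 0–3 from proportion of bleached leaf area at 7 DAT (1 <50%, 2 >50%, 3 100%). Plants were T1 transformants, glufosinate-selected, plus wild-type CK, sprayed 18 days post-sowing. Rates: topramezone 25–200, isoxaflutole 35–280, mesotrione 52.5–420 g ai/ha.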

[2] = tested on: Arabidopsis thaliana T1 plants; experiment: Isoxaflutole tolerance of transgenic Arabidopsis thaliana T1 plants (spray, bleached leaf area grade, damage score); set-up: Scores (pesticide damage): scale not given here; conditions: spray, Arabidopsis thaliana T1 plants; for Classification and statistics of the grade of pesticide damage: Grade 0 (number of plants) / Classification and statistics of the grade of pesticide damage: Grade 1 (number of plants) / Classification and statistics of the grade of pesticide damage: Grade 2 (number of plants) / Classification and statistics of the grade of pesticide damage: Grade 3 (number of plants): 16 plants
How it was run: as §1

[3] = tested on: Arabidopsis thaliana T1 plants; experiment: Mesotrione tolerance of transgenic Arabidopsis thaliana T1 plants (spray, bleached leaf area grade, damage score); set-up: Scores: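 damage score 0-100 computed as Σ(N×S)/(T×M)×100 over grades 0-3 with higher meaning more damage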; conditions: Arabidopsis thaliana T1 plants; for Grade 0 (classification and statistics of the grade of pesticide damage; number of plants) / Grade 1 (classification and statistics of the grade of pesticide damage; number of plants) / Grade 2 (classification and statistics of the grade of pesticide damage; number of plants) / Grade 3 (classification and statistics of the grade of pesticide damage; number of plants): 16 plants
How it was run: as §1

[4] = isoxaflutole 35 g ai/ha (0.5x field concentration)
[5] = isoxaflutole 70 g ai/ha (1x field concentration)

B1: OsHPPDm-F383W-02: nucleotide sequence encoding Oryza sativa HPPD with F383W; vector DBN11756 (nucleic acid)
DNA: ATGCCACCCACGCCAACACCAACGGCCACCACTGGTGCCGTCTCGGCCGCGGCAGCGGCCGGTGAGAATGCTGGTTTCAGGCTAGTCGGCCACCGCCGCTTCGTGAGGGCAAATCCAAGATCTGATCGGTTCCAAGCACTTGCTTTCCACCATGTTGAGCTGTGGTGCGCTGACGCCGCTTCAGCTGCCGGGAGGTTTGCTTTTGCTTTAGGGGCGCCGCTCGCCGCAAGGAGTGATCTTTCCACCGGAAATTCTGCTCATGCTTCTCTTCTACTTAGATCAGCAAGTGTTGCATTTCTGTTCACTGCACCTTATGGCGGAGACCATGGTGTCGGGGCCGATGCTGCAACAACAGCTAGCATACCATCATTTTCTCCCGGCGCCGCAAGAAGATTTGCAGCCGATCATGGCCTGGCAGTTCATGCTGTGGCATTGAGGGTCGCCGACGCGGCTGATGCGTTCCGCGCCAGCGTGGCTGCTGGAGCTAGGCCGGCGTTCCAGCCTGCTGACCTTGGGGGTGGATTTGGATTGGCGGAGGTTGAATTATATGGTGATGTTGTGCTCCGTTTTGTTTCCCATCCAGATGGTGCTGATGCTCCATTTCTACCTGGATTTGAAGGGGTGTCAAACCCCGGCGCGGTGGATTATGGACTGCGTCGATTTGATCACGTGGTAGGTAATGTTCCTGAGTTGGCTCCCGTGGCGGCCTACATTTCAGGCTTTACTGGCTTCCATGAATTTGCCGAGTTCACCGCGGAAGATGTGGGAACTGCTGAAAGTGGATTGAACTCTGTTGTCCTGGCGAACAATGCAGAGACTGTATTGCTCCCCTTGAATGAGCCTGTGCACGGCACCAAACGGCGATCTCAAATTCAGACATACCTCGACCACCACGGGGGCCCTGGTGTTCAGCATATTGCTCTAGCCAGCGACGACGTACTGGGAACACTGAGGGAGATGAGAGCCCGTTCCGCCATGGGTGGCTTTGAGTTTCTGGCCCCTCCGCCGCCAAACTACTACGACGGCGTCAGACGGCGGGCGGGTGACGTCTTGAGTGAGGAGCAGATCAATGAATGTCAAGAACTTGGGGTTCTTGTTGATAGAGATGATCAAGGAGTGCTCCTCCAAATATTCACAAAACCTGTTGGCGACCGCCCGACCTTCTGGCTTGAAATGATCCAAAGGATCGGCTGCATGGAGAAGGATGAATCGGGCCAGGAGTACCAGAAGGGTGGGTGTGGTGGCTTTGGGAAGGGCAACTTCAGCGAGCTGTTCAAGTCAATTGAAGAATATGAAAAATCATTGGAGGCAAAGCAAGCTCCGACGGTGCAGGGAAGCTGA
modifications: OsHPPDm-F383W-02 Nucleotide Sequence
notes: vector DBN11756
[1]; topramezone 25 g ai/ha (1×)
  Classification and statistics of the grade of pesticide damage: Grade 0: 0
  Classification and statistics of the grade of pesticide damage: Grade 1: 3
  Classification and statistics of the grade of pesticide damage: Grade 2: 9
  Classification and statistics of the grade of pesticide damage: Grade 3: 4
  Scores: 69
  Resistance evaluation: non-resistant (non-resistant plants (scores 68-100))
[1]; topramezone 100 g ai/ha (4×)
  Classification and statistics of the grade of pesticide damage: Grade 0: 0
  Classification and statistics of the grade of pesticide damage: Grade 1: 0
  Classification and statistics of the grade of pesticide damage: Grade 2: 0
  Classification and statistics of the grade of pesticide damage: Grade 3: 16
  Scores: 100
  Resistance evaluation: non-resistant (non-resistant plants (scores 68-100))
[2]; [4]
  Resistance evaluation: Non-resistant
  Scores (pesticide damage): 94
  Classification and statistics of the grade of pesticide damage: Grade 0 (number of plants): 0
  Classification and statistics of the grade of pesticide damage: Grade 1 (number of plants): 0
  Classification and statistics of the grade of pesticide damage: Grade 2 (number of plants): 3
  Classification and statistics of the grade of pesticide damage: Grade 3 (number of plants): 13
[2]; [5]
  Resistance evaluation: Non-resistant
  Scores (pesticide damage): 100
  Classification and statistics of the grade of pesticide damage: Grade 0 (number of plants): 0
  Classification and statistics of the grade of pesticide damage: Grade 1 (number of plants): 0
  Classification and statistics of the grade of pesticide damage: Grade 2 (number of plants): 0
  Classification and statistics of the grade of pesticide damage: Grade 3 (number of plants): 16
[3]; mesotrione 52.5 g ai/ha
  Resistance evaluation: Non-resistant
  Scores: 85
  Grade 0 (classification and statistics of the grade of pesticide damage; number of plants): 0
  Grade 1 (classification and statistics of the grade of pesticide damage; number of plants): 0
  Grade 2 (classification and statistics of the grade of pesticide damage; number of plants): 7
  Grade 3 (classification and statistics of the grade of pesticide damage; number of plants): 9
[3]; mesotrione 105 g ai/ha
  Resistance evaluation: Non-resistant
  Scores: 100
  Grade 0 (classification and statistics of the grade of pesticide damage; number of plants): 0
  Grade 1 (classification and statistics of the grade of pesticide damage; number of plants): 0
  Grade 2 (classification and statistics of the grade of pesticide damage; number of plants): 0
  Grade 3 (classification and statistics of the grade of pesticide damage; number of plants): 16
